Data as given in publication PMC5575267, “A novel function of cIAP1 as a mediator of CHIP-driven eIF4E regulation” (Scientific Reports, 2017).
Changes are numbered by the printed parent chain. Names may count otherwise. Blank lines part the entries; values can stand above or below the binder they belong to.

Experiments:
GST-cIAP1 [1] = biological target: T1, GST-cIAP1 (human, UniProt Q13490 1-618); assay: pull-down; His-tag pull-down: eIF4E-6His beads pre-incubated with GST-cIAP1 (also in increasing amounts), then incubated with GST-CHIP or GST alone; WB with anti-GST antibody; settings: both partners purified
T1 construct: also called GST-cIAP1 beads; source: bacteria, purified (cloned into pGEX4T-1)

GST-cIAP1 [2] = biological target: T1, GST-cIAP1; assay: pull-down; GST pull-down: GST or GST fusion protein on glutathione beads incubated with 6His-tagged protein in 100 mM Tris pH 8.0, 100 mM NaCl, 2 mM EDTA, 5% glycerol, 2 h at 4 °C; WB with anti-His antibody; settings: both partners purified

T1 sequence (Q13490 whole entry): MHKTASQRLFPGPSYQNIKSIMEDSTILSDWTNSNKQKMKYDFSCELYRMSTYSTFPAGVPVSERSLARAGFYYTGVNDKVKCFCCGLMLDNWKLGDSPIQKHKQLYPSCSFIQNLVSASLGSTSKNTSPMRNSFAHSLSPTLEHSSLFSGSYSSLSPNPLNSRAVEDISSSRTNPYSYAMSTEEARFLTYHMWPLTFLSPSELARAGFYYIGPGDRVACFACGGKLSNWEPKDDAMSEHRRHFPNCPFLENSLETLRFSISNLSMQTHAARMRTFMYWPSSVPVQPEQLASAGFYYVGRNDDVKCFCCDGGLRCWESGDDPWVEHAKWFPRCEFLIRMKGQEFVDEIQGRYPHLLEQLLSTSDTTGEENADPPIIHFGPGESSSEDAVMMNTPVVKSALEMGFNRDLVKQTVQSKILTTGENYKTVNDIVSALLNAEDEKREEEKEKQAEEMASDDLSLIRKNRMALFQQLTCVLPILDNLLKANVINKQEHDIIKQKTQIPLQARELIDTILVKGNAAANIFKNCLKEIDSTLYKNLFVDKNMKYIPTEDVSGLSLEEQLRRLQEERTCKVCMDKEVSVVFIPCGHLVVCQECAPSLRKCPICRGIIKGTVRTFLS

binding result (GST-cIAP1 [1]): binds
B1: GST-CHIP WT (natural protein, UniProt Q9UNE7 1-303, looked up)
chain: MKGKEEKEGGARLGAGGGSPEKSPSAQELKEQGNRLFVGRKYPEAAACYGRAITRNPLVAVYYTNRALCYLKMQQHEQALADCRRALELDGQSVKAHFFLGQCQLEMESYDEAIANLQRAYSLAKEQRLNFGDDIPSALRIAKKKRWNSIEERRIHQESELHSYLSRLIAAERERELEECQRNHEGDEDDSHVRAQQACIEAKHDKYMADMDELFSQVDEKRKKRDIPDYLCGKISFELMREPCITPSGITYDRKDIEEHLQRVGHFDPVTRSPLTQEQLIPNLAMKEVIDAFISENGWVEDY
notes: source: bacteria, purified (cloned into pGEX4T-1)

binding result (GST-cIAP1 [2]): binds
B2: CHIP WT-6His (natural protein, UniProt Q9UNE7 1-303, looked up)
chain: B1 chain
notes: also called CHIP-6His (WT); source: bacteria, purified (cloned into pET 23a)

binding result (GST-cIAP1 [2]): binds
B3: CHIP K30A-6His (natural protein, UniProt Q9UNE7 1-303, looked up)
chain: B1 chain with K30A
notes: also called CHIP-6His (K30A); source: bacteria, purified (cloned into pET 23a)
